Source: the supplement of paper PMC11246515
± gives the standard deviation of the averaged measurements.

Assay: total protein half-life in vivo (active degradation + dilution); higher = more stable protein
[1] = E. coli NCM3722 delta-clpP, growth: N-lim chemostat, doubling time 6 h
[2] = E. coli NCM3722 delta-hslV, growth: N-lim chemostat, doubling time 6 h
[3] = E. coli NCM3722 delta-lon, growth: N-lim chemostat, doubling time 6 h
[4] = E. coli NCM3722 delta-smpB, growth: N-lim chemostat, doubling time 6 h
[5] = wild type E. coli NCM3722, growth: C-lim chemostat, doubling time 3 h
[6] = wild type E. coli NCM3722, growth: C-lim chemostat, doubling time 6 h
[7] = wild type E. coli NCM3722, growth: C-lim chemostat, doubling time 12 h
[8] = wild type E. coli NCM3722, growth: N-lim chemostat, doubling time 6 h
[9] = wild type E. coli NCM3722, growth: N-lim chemostat, doubling time 12 h
[10] = wild type E. coli NCM3722, growth: P-lim chemostat, doubling time 6 h
[11] = wild type E. coli NCM3722, growth: P-lim chemostat, doubling time 12 h
[12] = E. coli NCM3722 delta-clpP delta-lon delta-hslV, growth: N-lim chemostat, doubling time 6 h

Sequence	total protein half-life in vivo [1]	total protein half-life in vivo [2]	total protein half-life in vivo [3]	total protein half-life in vivo [4]	total protein half-life in vivo [5]	total protein half-life in vivo [6]	total protein half-life in vivo [7]	total protein half-life in vivo [8]	total protein half-life in vivo [9]	total protein half-life in vivo [10]	total protein half-life in vivo [11]	total protein half-life in vivo [12]
MKYLASFRTTLKASRYMFRALALVLWLLIAFSSVFYIVNALHQRESEIRQEFNLSSDQAQRFIQRTSDVMKELKYIAENRLSAENGVLSPRGRETQADVPAFEPLFADSDCSAMSNTWRGSLESLAWFMRYWRDNFSAAYDLNRVFLIGSDNLCMANFGLRDMPVERDTALKALHERINKYRNAPQDDSGSNLYWISEGPRPGVGYFYALTPVYLANRLQALLGVEQTIRMENFFLPGTLPMGVTILDENGHTLISLTGPESKIKGDPRWMQERSWFGYTEGFRELVLKKNLPPSSLSIVYSVPVDKVLERIRMLILNAILLNVLAGAALFTLARMYERRIFIPAESDALRLEEHEQFNRKIVASAPVGICILRTADGVNILSNELAHTYLNMLTHEDRQRLTQIICGQQVNFVDVLTSNNTNLQISFVHSRYRNENVAICVLVDVSSRVKMEESLQEMAQAAEQASQSKSMFLATVSHELRTPLYGIIGNLDLLQTKELPKGVDRLVTAMNNSSSLLLKIISDILDFSKIESEQLKIEPREFSPREVMNHITANYLPLVVRKQLGLYCFIEPDVPVALNGDPMRLQQVISNLLSNAIKFTDTGCIVLHVRADGDYLSIRVRDTGVGIPAKEVVRLFDPFFQVGTGVQRNFQGTGLGLAICEKLISMMDGDISVDSEPGMGSQFTVRIPLYGAQYPQKKGVEGLSGKRCWLAVRNASLCQFLETSLQRSGIVVTTYEGQEPTPEDVLITDEVVSKKWQGRAVVTFCRRHIGIPLEKAPGEWVHSVAAPHELPALLARIYLIEMESDDPANALPSTDKAVSDNDDMMILVVDDHPINRRLLADQLGSLGYQCKTANDGVDALNVLSKNHIDIVLSDVNMPNMDGYRLTQRIRQLGLTLPVIGVTANALAEEKQRCLESGMDSCLSKPVTLDVIKQTLTLYAERVRKSRDS [P0DMC5]	6.287 ± 0.034 h	5.76 ± 0.49 h	6.22 ± 0.067 h	5.88 ± 0.48 h	2.98 ± 0.21 h	6.119 ± 0.024 h	13.1 ± 2.3 h	6.01 ± 0.37 h	11.6 ± 0.28 h	6.1 ± 0.12 h	11.8 ± 0.82 h	–
MKYVDGFVVAVPADKKDAYREMAAKAAPLFKEFGALRIVECWASDVPDGKVTDFRMAVKAEENEEVVFSWIEYPSKEVRDAANQKMMSDPRMKEFGESMPFDGKRMIYGGFESIIDE [P0AAQ6]	2.69 ± 0.41 h	3.26 ± 1.4 h	3.82 ± 0.1 h	1.51 ± 0.073 h	–	2.63 ± 0.71 h	2.54 ± 0.65 h	2.14 h	2.62 ± 0.04 h	3.082 ± 0.03 h	6.13 ± 0.85 h	4.294 ± 0.022 h
MLAFCRSSLKSKKYIIILLALAAIAGLGTHAAWSSNGLPRIDNKTLARLAQQHPVVVLFRHAERCDRSTNQCLSDKTGITVKGTQDARELGNAFSADIPDFDLYSSNTVRTIQSATWFSAGKKLTVDKRLLQCGNEIYSAIKDLQSKAPDKNIVIFTHNHCLTYIAKDKRDATFKPDYLDGLVMHVEKGKVYLDGEFVNH	5.63 h	4.99 ± 1.1 h	–	–	3 ± 1.2 h	4.93 ± 1.4 h	–	4.21 ± 2.1 h	–	5.09 ± 0.5 h	–	> 8 h
MLAKRIIPCLDVRDGQVVKGVQFRNHEIIGDIVPLAKRYAEEGADELVFYDITASSDGRVVDKSWVSRVAEVIDIPFCVAGGIKSLEDAAKILSFGADKISINSPALADPTLITRLADRFGVQCIVVGIDTWYDAETGKYHVNQYTGDESRTRVTQWETLDWVQEVQKRGAGEIVLNMMNQDGVRNGYDLEQLKKVREVCHVPLIASGGAGTMEHFLEAFRDADVDGALAASVFHKQIINIGELKAYLATQGVEIRIC	4.15 ± 0.38 h	4.45 ± 0.13 h	4.83 ± 0.12 h	4.317 ± 0.0095 h	2.97 ± 0.2 h	5.53 ± 0.17 h	9.44 ± 0.28 h	4.34 ± 0.0084 h	7.26 ± 0.56 h	5.64 ± 0.13 h	11.6 ± 0.42 h	4.98 ± 0.68 h
MLAQLTISNFAIVRELEIDFHSGMTVITGETGAGKSIAIDALGLCLGGRAEADMVRTGAARADLCARFSLKDTPAALRWLEENQLEDGHECLLRRVISSDGRSRGFINGTAVPLSQLRELGQLLIQIHGQHAHQLLTKPEHQKFLLDGYANETSLLQEMTARYQLWHQSCRDLAHHQQLSQERAARAELLQYQLKELNEFNPQPGEFEQIDEEYKRLANSGQLLTTSQNALALMADGEDANLQSQLYTAKQLVSELIGMDSKLSGVLDMLEEATIQIAEASDELRHYCDRLDLDPNRLFELEQRISKQISLARKHHVSPEALPQYYQSLLEEQQQLDDQADSQETLALAVTKHHQQALEIARALHQQRQQYAEELAQLITDSMHALSMPHGQFTIDVKFDEHHLGADGADRIEFRVTTNPGQPMQPIAKVASGGELSRIALAIQVITARKMETPALIFDEVDVGISGPTAAVVGKLLRQLGESTQVMCVTHLPQVAGCGHQHYFVSKETDGAMTETHMQSLNKKARLQELARLLGGSEVTRNTLANAKELLAA	3.53 ± 0.12 h	–	–	–	–	–	–	–	–	–	2.48 h	5.03 ± 0.093 h
MLARGKTNLKIEEIRMHKHHEIHRVKPLMPALCRIRQGKKVINWETHTLTVDNNQIILFPCGYEFYIENYPEAGLYLAEMLYLPIDLIESFQKLYTVTDQIRNKTSFFLPQNPELIYCWEQLKTSVSRGFSTKIQEHLAMGVLLSLGVNHVNHLLLSYSKQSLISRCYNLLLSEPGTKWTANKVARYLYISVSTLHRRLASEGVSFQSILDDVRLNNALSAIQTTVKPISEIARENGYKCPSRFTERFHNRFNITPREIRKASRE	> 8 h	–	–	3.44 ± 0.094 h	2 ± 0.38 h	3.83 ± 0.19 h	6.07 ± 1.8 h	4.12 ± 0.23 h	7.29 ± 0.94 h	3.65 ± 1.5 h	5.86 ± 1.1 h	5.01 ± 0.22 h
MLDLFKAIGLGLVVLLPLANPLTTVALFLGLAGNMNSAERNRQSLMASVYVFAIMMVAYYAGQLVMDTFGISIPGLRIAGGLIVAFIGFRMLFPQQKAIDSPEAKSKSEELEDEPSANIAFVPLAMPSTAGPGTIAMIISSASTVRQSSTFADWVLMVAPPLIFFLVAVILWGSLRSSGAIMRLVGKGGIEAISRLMGFLLVCMGVQFIINGILEIIKTYH [P0AEY1]	6.57 ± 0.74 h	5.91 h	6.14 ± 0.6 h	6.12 ± 0.25 h	–	5.73 ± 0.56 h	11.1 ± 0.56 h	–	10.7 h	6.23 ± 0.11 h	13 ± 1 h	–
